2 substances from US10189877 can be followed below.

In the assay the target is DSV^4 VLPs (Dengue virus serotypes 1-4; Hepatitis B virus; Hepatitis B virus). The assay can be described thus: sandwich ELISA: mAb coated, DSV^4 VLPs added, detected with peroxidase labelled anti-HBsAg. In general terms: An ELISA detects its analyte on a solid surface through an enzyme-linked reagent.

With 4G2 (antibody), the ELISA OD is 0.05 OD.

Consider 3H5 (antibody), for which the ELISA OD amounted to 0.77 OD.
